This assay addresses CO17 B NA (neuraminidase head of B/Colorado/06/2017, B/Victoria-lineage) (influenza B virus B/Colorado/06/2017). Description: cryo-EM structure.

Consider one substance from paper doi:10.1101/2024.11.26.625467.

By stoichiometry N is commonly meant a count of units in the complex or per binding partner.

The substance “CO17 B NA (neuraminidase head of B/Colorado/06/2017, B/Victoria-lineage) (domain or fragment)” returned a stoichiometry N of 4.
